Experimental data reported in US20250136687A1 (SHANDONG SIMCERE BIOPHARMACEUTICAL, published 2025).
Where two headings read alike, the source gives them in different places.

T1: monkey CD3ε protein (monkey, UniProt Q95LI5 22-117, limits assumed)
T1 sequence (looked up): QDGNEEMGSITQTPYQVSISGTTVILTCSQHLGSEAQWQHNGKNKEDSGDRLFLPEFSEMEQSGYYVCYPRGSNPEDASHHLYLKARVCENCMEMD


Columns and labels:
[1] = molecular target: T2, recombinant human CD3ε-ECD His protein (human, UniProt P07766 23-126); assay: ELISA, coated antigen
T2 construct: extracellular domain; also called human CD3ε-His; CD3ε antigen protein; not shown: His tag
T2 sequence (P07766 23-126): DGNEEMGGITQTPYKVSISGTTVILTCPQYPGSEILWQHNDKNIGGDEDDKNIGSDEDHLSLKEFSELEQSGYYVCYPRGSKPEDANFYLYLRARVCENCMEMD
Experimental: (§1) To detect the binding activity of the humanized antibodies to CD3 protein, CD3 protein was diluted with PBS to the final concentration of […], then added to a 96-well ELISA plate at 50 μL/well, and the plate was sealed with a plastic film, and incubated overnight at 4° C. On the next day, the plate was washed 2 times with PBS, and a blocking solution [PBS+2% (v/v) BSA] was added for blocking at room temperature for 2 h. The blocking solution was poured off, and the antibody (initial concentration of 100 nM, and gradient dilution at 1:10) or a negative control antibody was added at 50 µl/well. After incubation at 37° C. for 2 h, the plate was washed 3 times with PBS. […] TMB substrate was added at 50 μl/well, and incubated at room temperature for 10 min, and then a stop solution (1.0 N HCl) was added at 50 μl/well. The OD450 nm values were read by an ELISA microplate reader (Multimode Plate Reader, EnSight, purchased from Perkin Elmer).

human CD3ε/δ-His [2] = molecular target: T3, human CD3ε/δ-His (human, UniProt P07766 23-126; P04234 22-105); assay: ELISA, coated antigen
T3 construct: Bought recombinant heterodimer with His tag; also called human CD3ε/δ protein
T3 sequence (P07766 23-126, stated change not applied, form in doubt, chain 1 of 2): as the sequence (P07766 23-126) above
T3 sequence (P04234 22-105, stated change not applied, form in doubt, chain 2 of 2): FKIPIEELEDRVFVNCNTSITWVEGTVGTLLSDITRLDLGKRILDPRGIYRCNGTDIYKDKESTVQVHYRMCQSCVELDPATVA
Experimental: as §1

[3] = molecular target: T2, recombinant human CD3ε-ECD His protein; assay: SPR, antibody captured on Protein A chip
Experimental: (§2) Running buffer was HBS-EP+(10 mM HEPES, 150 mM NaCl, 3 mM EDTA, 0.05% surfactant P20) (GE Healthcare; BR-1006-69). The flow-through cell was set to 25° C. The sample block was set to 16° C. Both were pretreated with the running buffer. In each cycle, an antibody to be detected was first captured with a Protein A chip, and then a single concentration of CD3ε antigen protein was injected. The binding and dissociation processes of the antibody and the antigen protein were recorded, and finally Glycine pH 1.5 (GE Healthcare; BR-1003-54) was used to complete chip regeneration. The binding was measured by injecting different concentrations of recombinant human CD3ε proteins in a solution for 240 s with a flow rate of 30 μL/min. The concentration started from 200 nM (see the detailed results for the actual concentration in the test) and was diluted at 1:1, making a total of 5 concentrations. The dissociation phase was monitored for up to 600 s and was triggered by switching from sample solution to running buffer. The surface was regenerated by washing with a 10 mM glycine solution (pH 1.5) for 30 s at a flow rate of 30 μL/min. Bulk refractive index difference was corrected by subtracting the response obtained from the goat anti-human Fc surface, and the blank injection was subtracted at the same time (=double reference). For calculation of apparent KD value and other kinetic parameters, Langmuir 1:1 model was used.

human CD3ε/δ-His [4] = molecular target: T3, human CD3ε/δ-His; assay: SPR, antibody captured on Protein A chip
Experimental: as §2

monkey CD3ε/δ-His = molecular target: T4, monkey CD3ε/δ-His (monkey, UniProt Q95LI5 22-117; Q95LI8 22-105); assay: ELISA, coated antigen
T4 construct: Bought recombinant heterodimer with His tag
T4 sequence (Q95LI8 22-105, stated change not applied, form in doubt, chain 2 of 2, one chain of several): as the sequence (P04234 22-105, stated change not applied, form in doubt, chain 2 of 2) above, with I5V, N15K, I20V, S32T, D33N, I34N, T64A, S74N, V83L counted along it
Experimental: as §1
(§3) To detect the binding activity of the humanized antibodies to monkey CD3 protein, CD3 protein was diluted with PBS to the final concentration of […], and then added to a 96-well ELISA plate at 50 μl/well.

monkey CD3ε protein = molecular target: T1, monkey CD3ε protein; assay: ELISA, coated antigen
Experimental: as §1, §3

[5] = molecular target: T5, human CD3 on the cell surface (Jurkat cells, expanded human T cells, Jurkat-Lucia NFAT cells, human PBMC) (human, UniProt P07766 23-207; P04234 22-171; P09693 23-182); assay: FACS, expanded human T cells
T5 construct: whole, on cells; Endogenous CD3 within the TCR-CD3 complex on cells (also zeta chains and TCR); the cell type is named under assay
T5 sequence (P07766 23-207, chain 1 of 3): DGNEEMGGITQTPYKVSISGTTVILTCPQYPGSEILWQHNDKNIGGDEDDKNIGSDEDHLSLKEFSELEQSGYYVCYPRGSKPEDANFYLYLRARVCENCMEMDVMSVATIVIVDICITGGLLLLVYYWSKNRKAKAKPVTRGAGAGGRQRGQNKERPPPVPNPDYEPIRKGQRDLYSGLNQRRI
T5 sequence (P04234 22-171, chain 2 of 3): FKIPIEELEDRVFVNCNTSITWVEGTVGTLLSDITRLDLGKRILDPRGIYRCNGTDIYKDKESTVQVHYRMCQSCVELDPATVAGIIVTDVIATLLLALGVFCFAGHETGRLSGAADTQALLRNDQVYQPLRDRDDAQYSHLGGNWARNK
T5 sequence (P09693 23-182, chain 3 of 3): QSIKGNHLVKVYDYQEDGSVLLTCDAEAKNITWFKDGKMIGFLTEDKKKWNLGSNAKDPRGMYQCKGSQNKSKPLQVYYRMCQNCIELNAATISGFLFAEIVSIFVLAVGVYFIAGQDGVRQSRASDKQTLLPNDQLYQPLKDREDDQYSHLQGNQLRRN
Experimental: (§4) The binding of the chimeric antibodies to CD3 on the cell surface was analyzed by detecting the binding of the antibodies to Jurkat cells and human T cells. Suspension cells Jurkat cells were scale-up cultured in T-75 cell culture flasks to the logarithmic growth phase, the supernatant of the medium was discarded by centrifugation, and the cell pellet was washed 2 times with PBS for later use. The expanded human T cells were washed 2 times with PBS for later use. After counting the cells in the previous step, the cell pellet was resuspended with [PBS+2% (w/w) BSA] blocking solution to 4×10⁶ cells/ml, and added to a 96-well FACS reaction plate at 50 μl/well, and then the chimeric antibody to be tested was added at 50 μl/well, and incubated at 4° C. for 1 h. The cells were centrifuged and washed 3 times with a PBS buffer. […] The cells were centrifuged and washed 5 times with PBS, and FACS (FACS Canto™, purchased from BD Company) was used for detection and result analysis. Data analysis was performed by software (CellQuest) to obtain the mean fluorescence […] (MFI) of the cells. And then software (GraphPad Prism8) was used for analysis, data fitting, and EC50 value calculation. The same method was used to simultaneously detect the binding of the chimeric antibodies to endogenous CD3 negative cells MOLT4 cells.
The expanded human PBMC cells were collected, and FACS detection and data analysis were performed according to the method in Example 5.1.

[6] = molecular target: T6, cynomolgus monkey CD3 on the surface of expanded monkey T cells (cynomolgus monkey, UniProt Q95LI5 22-198; Q95LI8 22-171; Q95LI7 23-181); assay: FACS, expanded monkey T cells
T6 construct: whole, on cells; Endogenous CD3 within the TCR-CD3 complex on T cells expanded from cynomolgus monkey PBMC
T6 sequence (Q95LI5 22-198, chain 1 of 3): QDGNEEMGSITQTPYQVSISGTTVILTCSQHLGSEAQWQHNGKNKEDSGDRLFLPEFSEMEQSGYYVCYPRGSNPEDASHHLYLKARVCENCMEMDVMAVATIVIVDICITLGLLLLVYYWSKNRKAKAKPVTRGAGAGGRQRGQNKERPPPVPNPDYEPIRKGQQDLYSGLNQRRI
T6 sequence (Q95LI8 22-171, chain 2 of 3): as the sequence (P04234 22-171, chain 2 of 3) above, with I5V, N15K, I20V, S32T, D33N, I34N, T64A, S74N, V83L, H141R counted along it
T6 sequence (Q95LI7 23-181, chain 3 of 3): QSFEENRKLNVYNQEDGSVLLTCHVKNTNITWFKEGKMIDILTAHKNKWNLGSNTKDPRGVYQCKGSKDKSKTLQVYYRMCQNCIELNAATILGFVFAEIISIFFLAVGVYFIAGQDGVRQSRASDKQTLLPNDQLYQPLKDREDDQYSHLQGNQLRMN
Experimental: as §4
The expanded monkey T cells were collected, and FACS detection and data analysis were performed according to the method in Example 5.1.

[7] = molecular target: T5, human CD3 on the cell surface (Jurkat …); assay: FACS, Jurkat cells
Experimental: as §4

[8] = molecular target: T5, human CD3 on the cell surface (Jurkat …); assay: FACS, expanded human T cells; remark: listed apart in the source
Experimental: as §4

[9] = molecular target: T6, cynomolgus monkey CD3 on the surface of …; assay: FACS, expanded monkey T cells; remark: listed apart in the source
Experimental: as §4
FACS detection and data analysis were performed on the cryopreserved monkey T cells of Example 2.4 according to the method in Example 5.1.

[10] = molecular target: T5, human CD3 on the cell surface (Jurkat …); assay: cell-based or functional assay

EC50 [1] [nM] | max-OD450 [1] [OD450] | EC50 (human CD3ε/δ-His [2]) [nM] | max-OD450 (human CD3ε/δ-His [2]) [OD450] | Kd [3] [nM] | koff [3] [s⁻¹] | kon [3] [M⁻¹ s⁻¹] | Kd (human CD3ε/δ-His [4]) [nM] | koff (human CD3ε/δ-His [4]) [s⁻¹] | kon (human CD3ε/δ-His [4]) [M⁻¹ s⁻¹] | EC50 (monkey CD3ε/δ-His) [nM] | max-OD450 (monkey CD3ε/δ-His) [OD450] | EC50 (monkey CD3ε protein) [nM] | max-OD450 (monkey CD3ε protein) [OD450] | EC50 [5] [nM] | max_MFI [5] [MFI] | EC50 [6] [nM] | max_MFI [6] [MFI] | Binder | other results
0.0395 | 3.12 | 0.32 | 3.15 | 1.29 | 0.000369 | 286000 | 145 | 0.0335 | 231000 | 0.0552 | 3.13 | 0.00859 | 3.01 | 9.45 | 10000 | 7.84 | 10200 | 7-35.6-H2-L3 humanized antibody (antibody, human IgG1, lambda, V domains shown) VH: EVQLVESGGGLVQPGGSLKLSCAASGFTFNTYAMNWVRQASGKGLEWVGRIRSKINNYATYYGDSVKDRFTISRDDSKNTFYLQMNSLKTEDTAVYYCVIHENYGSISWFAYWGQGTLVTVSS VL: ETVVTQEPSLTVSPGGTVTLTCRSSTGAVTTSNYANWVQQKPGQAFTGLIGGTNNRAPWTPARFSGSLLGGKAALTLSGVQPEDEAEYYCALWYSNHWVFGGGTKLTVLG | –
0.0363 | 3.11 | 0.22 | 3.16 | 0.908 | 0.000249 | 274000 | 67.4 | 0.0317 | 469000 | 0.0193 | 3.16 | 0.00475 | 3.1 | 7.05 | 11500 | 2.84 | 11800 | 8-18.1-H1-L2 humanized antibody (antibody, human IgG1, kappa, V domains shown) VH: EVQLVQSGAEVKKPGASVKVSCKASGYTFTMNTMHWVRQAPGQRLEWMGYINPYSGYTKYNQIFKDRVTITADKSASTAYMELSSLRSEDTAVYYCLRGGEGVWGQGTTVTVSS VL: DVVMTQSPLSLPVTLGQPASISCKSSQSLLDSDGKTYLNWLQQRPGQSPRRLIYLVSELGSGVPDRFSGSGSGTDFTLKISRVEAEDVGVYYCWQGTHFPRTFGGGTKVEIKR | –

Continued, binder first:

Binder | EC50 [1] [nM] | max-OD450 [1] [OD450] | EC50 (human CD3ε/δ-His [2]) [nM] | max-OD450 (human CD3ε/δ-His [2]) [OD450] | Kd [3] [nM] | koff [3] [s⁻¹] | kon [3] [M⁻¹ s⁻¹] | Kd (human CD3ε/δ-His [4]) [nM] | koff (human CD3ε/δ-His [4]) [s⁻¹] | kon (human CD3ε/δ-His [4]) [M⁻¹ s⁻¹] | EC50 (monkey CD3ε/δ-His) [nM] | max-OD450 (monkey CD3ε/δ-His) [OD450] | EC50 (monkey CD3ε protein) [nM] | max-OD450 (monkey CD3ε protein) [OD450] | EC50 [5] [nM] | max_MFI [5] [MFI] | EC50 [6] [nM] | max_MFI [6] [MFI] | other results
6-35.22-H1-L1 humanized antibody (antibody, human IgG1, kappa, V domains shown) VH: EVQLVESGGGVVQPGRSLRLSCAASGFTFTDYYMSWVRQAPGKGLEWVAMSRNKAKGHTIEYSSSVKGRFTISRDNSKNTLYLQMNSLRAEDTAVYYCARDTYESYDGYFDVWGQGTTVTVSS VL: DIVMTQSPDSLAVSLGERATINCKSSQSLFNSRSRKNYLAWYQQKPGQTPKLLIYWASIRESGVPDRFSGSGSGTDFTLTISSLQAEDVAVYYCKQSYYLYTFGQGTKLEIKR | 0.0337 | 3.1 | 0.53 | 2.93 | – | – | – | – | – | – | – | – | – | – | 49.7 | 11300 | – | – | –
6-35.22 human-murine chimeric antibody (antibody, human IgG1, kappa, V domains shown, Human IgG1 chimera) VH: EVKLVESGGGLVQPGASLSLSCAASGFTFTDYYMSWVRQPPGKALEWLAMSRNKAKGHTIEYSSSVKGRFTISRDNSQSILYLQMNALRAEDSATYYCARDTYESYDGYFDVWGAGTTVIVSS VL: DIVMSQSPSSLAVSAGETVTMSCKSSQSLFNSRSRKNYLAWYQQKPGQTPKLLIYWASIRESGVPDRFTGSGSGTDFTLTISSVQAEDLAVYYCKQSYYLYTFGSGTKLEIKR | – | – | – | – | – | – | – | – | – | – | – | – | – | – | – | – | – | – | EC50 [7]: 8.3 nM; MFI_Max [7]: 26700 MFI; EC50 [8]: 3.62 nM; MFI_Max [8]: 8900 MFI; EC50 [9]: 4.18 nM; MFI_Max [9]: 18200 MFI; EC50 (nM), luciferase reporter, Jurkat-Lucia NFAT cells [10]: 0.82 nM; Maximum response value (RLU) [10]: 27000 RLU
5-7.13-H1a-L2 humanized antibody (antibody, human IgG1, kappa, V domains shown) VH: EVQLVQSGAEVKKPGASVKVSCKASGYTFTSYWVHWVRQAPGQRLEWMGNINPSDGVTNYNEKFKSRVTITVDKSASTAYMELSSLRSEDTAVYYCTRDAYGQYYFDNWGQGTTVTVSS VL: DIVMTQTPLSLPVTPGEPASISCKSSQSLLNSRTRKNYLAWYLQKPGQSPQLLIYWASVRDSGVPDRFSGSGSGTDFTLKISRVEAEDVGVYYCIQSYYLRTFGGGTKVEIKR | 0.0206 | 3.16 | 0.19 | 3.01 | 0.806 | 0.000214 | 266000 | 27.4 | 0.00983 | 358000 | 0.00332 | 3.08 | 0.00263 | 2.99 | 1.52 | 35900 | 0.92 | 25400 | –
